Test results from publication PMC5714956, “Insight into the molecular recognition mechanism of the coactivator NCoA1 by STAT6” (Scientific Reports, 2017).

T1: NCoA1 PAS-B domain 257-385 (nuclear coactivator 1) (UniProt Q15788 257-385)
T1 construct: Used unlabeled or 15N / 15N-13C labeled in the NMR samples
T1 sequence (looked up): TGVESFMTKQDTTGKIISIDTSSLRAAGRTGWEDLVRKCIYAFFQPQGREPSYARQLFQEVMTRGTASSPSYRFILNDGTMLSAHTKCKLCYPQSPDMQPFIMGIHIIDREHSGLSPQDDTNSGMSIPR


Tests used:
[1] = target: NCoA1 (Homo sapiens) (UniProt Q15788); assay: fluorescence polarization; conditions: cited from earlier work
[2] = target: NCoA1 (Homo sapiens) (UniProt Q15788); assay: competitive fluorescence polarization; conditions: cited from earlier work
[3] = target: T1, NCoA1 PAS-B domain 257-385 (nuclear …); assay: crystal structure; X-ray structure of the NCoA-1 PAS-B domain in complex with the STAT6 783-814 peptide (PDB 5NWX); peptide added in 1.5 fold molar excess, complex purified by gel filtration (Superdex 75); conditions: both partners purified

Sequence of NCoA1 (Homo sapiens) (Q15788 2-1441): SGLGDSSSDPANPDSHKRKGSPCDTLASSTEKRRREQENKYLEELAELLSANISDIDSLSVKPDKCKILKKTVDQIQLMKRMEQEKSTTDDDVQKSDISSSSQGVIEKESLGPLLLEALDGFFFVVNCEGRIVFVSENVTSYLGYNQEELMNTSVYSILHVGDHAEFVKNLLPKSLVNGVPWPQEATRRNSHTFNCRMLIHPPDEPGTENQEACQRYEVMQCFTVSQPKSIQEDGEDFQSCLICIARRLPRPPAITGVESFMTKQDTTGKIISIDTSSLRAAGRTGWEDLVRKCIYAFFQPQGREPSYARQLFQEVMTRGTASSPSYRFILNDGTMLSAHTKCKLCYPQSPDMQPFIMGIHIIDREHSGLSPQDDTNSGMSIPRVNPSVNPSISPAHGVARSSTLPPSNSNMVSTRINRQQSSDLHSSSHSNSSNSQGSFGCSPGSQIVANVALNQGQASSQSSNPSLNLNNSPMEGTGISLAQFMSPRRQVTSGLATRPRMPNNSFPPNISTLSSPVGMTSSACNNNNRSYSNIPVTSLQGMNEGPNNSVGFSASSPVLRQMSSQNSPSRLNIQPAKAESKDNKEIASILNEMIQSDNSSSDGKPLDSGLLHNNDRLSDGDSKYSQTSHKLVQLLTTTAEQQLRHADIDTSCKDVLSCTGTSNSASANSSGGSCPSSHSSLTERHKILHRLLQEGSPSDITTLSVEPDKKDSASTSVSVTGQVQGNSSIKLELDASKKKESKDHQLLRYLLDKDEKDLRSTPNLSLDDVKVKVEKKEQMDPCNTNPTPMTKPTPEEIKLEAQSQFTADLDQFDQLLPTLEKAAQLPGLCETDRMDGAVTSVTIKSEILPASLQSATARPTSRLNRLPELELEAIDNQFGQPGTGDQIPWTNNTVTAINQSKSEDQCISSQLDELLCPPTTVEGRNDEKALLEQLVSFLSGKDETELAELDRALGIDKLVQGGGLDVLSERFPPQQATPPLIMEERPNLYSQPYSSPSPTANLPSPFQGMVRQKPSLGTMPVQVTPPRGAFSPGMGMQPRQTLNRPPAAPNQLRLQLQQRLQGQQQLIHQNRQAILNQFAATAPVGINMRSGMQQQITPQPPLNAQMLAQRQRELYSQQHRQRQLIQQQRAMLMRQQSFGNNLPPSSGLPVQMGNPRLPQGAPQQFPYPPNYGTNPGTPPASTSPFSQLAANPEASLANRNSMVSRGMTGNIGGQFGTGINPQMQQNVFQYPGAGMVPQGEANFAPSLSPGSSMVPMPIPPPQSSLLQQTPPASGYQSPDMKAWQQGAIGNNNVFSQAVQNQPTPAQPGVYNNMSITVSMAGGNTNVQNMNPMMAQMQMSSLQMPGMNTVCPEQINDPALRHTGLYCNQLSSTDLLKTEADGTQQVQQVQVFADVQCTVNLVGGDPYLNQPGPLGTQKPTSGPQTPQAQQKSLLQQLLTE

| Molecule | Kd [1] | Ki [2] | binding result [3] |
| --- | --- | --- | --- |
| STAT6 783-814 (from UniProt P42226) | 40 nM | 40 nM | – |
| STAT6 794-814 (from UniProt P42226) | 320 nM | 260 nM | – |
| GTWIGEDIFPPLLPPTEQDLTKLLLEGQGESG (peptide, UniProt P42226 783-814, looked up, The His7-tag probably left with the Z-tag (the Z-tag was removed on Ni-NTA resin after TEV cleavage); Used unlabeled or 15N / 15N-13C labeled in the NMR samples; source: produced recombinantly, purified (TEV cleavage, Ni-NTA, reversed phase HPLC); not shown: Z-tag, N-terminal, cleaved) [STAT6 peptide 783-814 (fragment of the STAT6 transactivation domain with the LXXLL motif)] | – | – | binds |
